Where two headings read alike, the source gives them in different places.
Experiments:
CocE [1] = biological target: T1, CocE (Rhodococcus sp., UniProt Q9L9D7); test: Inhibition of CocE (cleavage of 4-nitrophenyl acetate); format: biochemical, Rhodococcus sp. MB 1
T1 construct: generating a full-length CocE gene encoding the T172R mutation; His6 (C); made in house; host or cells: E. coli (pET-22b(+))
Experimental: (§1) Benzoic acid prevented 37° C.-induced formation of high molecular weight CocE aggregates (0.1 mg/ml enzyme concentrations) (see, e.g., FIG. 35). Benzoic acid (uM quantities) stabilized 37° C.-induced activity loss (see, e.g., FIG. 36), although the mechanism of this stabilization is complicated due to substrate inhibition at higher concentrations.
CocE catalyzes the cleavage of 4-nitrophenyl acetate (4NPA) to 4-nitrophenol (4NP) and acetate. The cleavage reaction was monitored by observation of product formation at 400 nm. Both 4NP and 4NPA (mM range) prevented 37° C.-induced formation of high molecular weight CocE aggregates (0.1 mg/ml enzyme concentrations).

CocE [2] = biological target: T1, CocE; test: Stabilization against 37° C.-induced formation of high molecular weight CocE aggregates (gel); format: physicochemical, Rhodococcus sp. MB 1; settings: 0.1 mg/ml enzyme, mM range
Experimental: Plasmids containing the mutations were transformed into E. coli BL21 cells and IPTG-induced enzyme was purified on Ni-Agarose. Expressed proteins were then tested for enzymatic activity and for thermostability at 37° C. Enzyme activity was measured using the spectrophotometric assay as described in Example 1. Thermostability was also tested via the spectrophotometric assay by pre-incubation of both wild-type and mutants at 37° C. for various times. Additionally, the nature of the thermo-instability of both the wild-type and T172R mutant was analyzed by polyacrylamide gel electrophoresis under denaturing and non-denaturing conditions. Briefly, mutant and wild-type enzyme at 0.1 mg/ml were incubated at 37° C. for various time-points, cooled to 4° C., mixed with SDS-loading dye containing-mercaptoethanol and run on 10% SDS-PAGE gels (denaturing conditions) or run on native 10% polyacrylamide gels (non-denaturing conditions) at 4° C. Gels were fixed with 10% methanol, 7% acetic acid for 30 minutes, and then stained with Sypro-Ruby protein gel stain (Molecular Probes, Invitrogen) for 3 hours. Protein staining was visualized under UV-light using an AlphaImager™ 3400 (Alpha Innotech). Finally, the exact melting temperature of both the wild-type and T172R mutant were determined by circular dichroism using a JASCO-810 spectropolarimeter driven by a JASCO V500/FP-750 analysis program for Windows. The CD spectra were measured in millidegrees and normalized against PBS buffer.
(§2) Cocaine esterase (CocE) cleaves cocaine to produce Benzoic acid and Ecgonine methyl ester. Briefly, alternative substrates and inhibitors of cocaine, as well as compounds able to thermostabilize the enzyme, were investigated generally by substituting amide and thiol analogues at the reactive ester bond, or removing the bond (for inhibitors), substituting benzoyl analogues in place of the benzoic acid leaving group, and/or removing or altering the methyl-ester group on the ecgonine portion of the molecule. As discussed below, it was determined that some substrates, products, and inhibitors stabilized thermal denaturation of wild type CocE, as well as prevented thermally-induced aggregation in gel electrophoresis.
as §1, with “Cocaine is the natural substrate of Cocaine esterase (CocE). Cocaine cleavage was monitored by a drop in absorbance at 240 nm. Cocaine (mM range)” for “Benzoic acid”, “33). Cocaine” for “35). Benzoic acid”, “34),” for “36),”

CocE [3] = biological target: T1, CocE; test: Stabilization of 37° C.-induced CocE activity loss; format: biochemical, Rhodococcus sp. MB 1; settings: uM quantities
Source text: as §2
as §1, with “Cocaine is the natural substrate of Cocaine esterase (CocE). Cocaine cleavage was monitored by a drop in absorbance at 240 nm. Cocaine (mM range)” for “Benzoic acid”, “33). Cocaine” for “35). Benzoic acid”, “34),” for “36),”

[4] = test system: cocaine-induced lethality; test: Cocaine toxicity in mice, incl. repeated CocE doses; format: in vivo, mouse
Source text: The animal toxicity model was similar to that described previously, except as described. Male NIH Swiss mice were used. For tail intravenous injection, mice are placed in a small restraint chamber that exposes their tail. A heat lamp with an infrared, 250 w bulb is placed about 4 inches from the tail, and left for a couple of minutes. The tail is then cleansed with an alcohol wipe and a 30 G ½ precision glide needle (Fisher Scientific), is inserted into one of the side veins for infusion. To verify whether the needle is in the vein a small amount of drug is infused, if in the correct location the solution should infuse easily without any indication of an incorrect subcutaneous location, which appears white at the site of injection. For intravenous catheterization, Male NIH Swiss mice are anesthetized with ketamine 100 mg/kg and xylazine 10 mg/kg co-administered i.p. When mice are no longer responsive to paw pressure, the neck is shaved and prepped by alternating Betadine and alcohol wipes. Under clean conditions, a right transverse neck incision is made and the external jugular vein is isolated. A catheter is inserted into the vein with the aid of a dissecting microscope to the level of the right atrium, and is secured in the vein with nylon, 4-0 sutures and tissue adhesive, 3M Vetbond (3M Animal Care Products, St. Paul, Minn.). The catheters are a short length of Tygon tubing with an inner diameter of 0.010 in. and an outer diameter of 0.030 in. (Small Parts, Inc., Miami Lakes, Fla.). A small incision is made in the middle of the animal's back, and a trocar inserted subcutaneously to exit at the ventral incision site. The catheter is then pulled through the trocar and brought out the animal's back where it is held in place with nylon suture material and the tissue adhesive. A short piece of steel wire with a diameter of 0.011 in. (Small Parts, Inc., Miami Lakes, Fla.) is inserted into the end of the catheter. The ventral incision is closed with 4-0 Vicryl suture material and the mouse placed under a heat lamp for recovery. Approximately an hour later, the mouse is returned to its home cage.
Mice that survived a first administration of the combination of 0.32 mg CocE and 320 mg/kg cocaine were given this combination again, 14 days following the initial administration.

[5] = cited from earlier work
[6] = humans; cited from earlier work
[7] = Cocaine blood levels and lethal concentrations in the rat (literature)
[8] = test system: cocaine-induced lethality; test: Rodent model of acute cocaine toxicity (convulsions and lethality) in rats
[9] = Gel filtration of samples incubated at 37° C.; format: physicochemical
Experimental: Higher Km values on day 3 were due to reuse of old cocaine.
Protection from aggregation of thermal stable CocE mutants was assessed using size exclusion chromatography. Briefly, enzymes were preincubated at 37° C. for 0 minutes or 60 minutes and resolved by size exclusion chromatography.

[10] = Cocaine spectrophotometric assay (240 nm), Michaelis-Menten kinetics
[11] = CocE activity recovered after pegylation (initial rates of cocaine hydrolysis); settings: m-PEG 5.5 KDa, preliminary
[12] = against (-) cocaine; cited from earlier work
[13] = test system: cocaine-induced lethality; settings: rats; cited from earlier work

O=C(O)c1ccccc1 [Benzoic acid]
Ki (CocE [1]): 310 µM
37° C.-induced formation of high molecular weight CocE aggregates (CocE [2]): prevented
37° C.-induced activity loss (CocE [3]): stabilized

COC(=O)[C@H]1[C@@H](OC(=O)c2ccccc2)C[C@@H]2CC[C@H]1N2C [cocaine]
time to death ([4]; 180 mg/kg i.p. cocaine alone, mice): about 3 min
time of peak plasma levels ([5]; after an intraperitoneal injection): about 13 minutes
lethal blood concentrations ([5]; rat): 50 to 128 µM
lethal concentrations [6]: 20 to 200 µM
estimated peak cocaine blood concentration ([7]; 100 mg/kg cocaine i.p.): 35 µM
estimated peak cocaine blood concentration ([7]; 320 mg/kg cocaine i.p.): 113 µM
animals in which death was observed ([8]; 100 mg/kg cocaine, rats): 100%
time to death after administration ([8]; 100 mg/kg cocaine, rats): less than 15 minutes

B1: N197K (protein)
chain: MVDGNYSVASNVMVPMRDGVRLAVDLYRPDADGPVPVLLVRNPYDKFDVFAWSTQSTNWLEFVRDGYAVVIQDTRGLFASEGEFVPHVDDEADAEDTLSWILEQAWCDGNVGMFGVSYLGVTQWQAAVSGVGGLKAIAPSMASADLYRAPWYGPGGALSVEALLGWSALIGTGLITSRSDARPEDAADFVQLAAILKDVAGAASVTPLAEQPLLGRLIPWVIDQVVDHPDNDESWQSISLFERLGGLATPALITAGWYDGFVGESLRTFVAVKDNADARLVVGPWSHSNLTGRNADRKFGIAATYPIQEATTMHKAFFDRHLRGETDALAGVPKVRLFVMGIDEWRDETDWPLPDTAYTPFYLGGSGAANTSTGGGTLSTSISGTESADTYLYDPADPVPSLGGTLLFHNGDNGPADQRPIHDRDDVLCYSTEVLTDPVEVTGTVSARLFVSSSAVDTDFTAKLVDVFPDGRAIALCDGIVRMRYRETLVNPTLIEAGEIYEVAIDMLATSNVFLPGHRIMVQVSSSNFPKYDRNSNTGGVIAREQLEEMCTAVNRIHRGPEHPSHIVLPIIKRLEHHHHHH
modifications: Mutant CocE polypeptide
gel filtration result [9]: formation of aggregates
Km ([10]; Day 0, (0) at 37° C.): 34.8 µM
Km ([10]; Day 0, (60) at 37° C.): 24.2 µM
Km ([10]; Day 3 repeat, (0), old cocaine reused): 102 µM
Km ([10]; Day 3 repeat, (60), old cocaine reused): 114 µM
stability after 1 hour at 37° C. ([10]; day 0, preliminary): good stability

B2: PEG-CocE: wild-type CocE linked with monomethoxy-PEG polymers (MW 5.5 KDa), mixture with 1 to 4 PEG chains (conjugate, UniProt Q9L9D7 1-574, looked up)
Cocaine esterase: MVDGNYSVASNVMVPMRDGVRLAVDLYRPDADGPVPVLLVRNPYDKFDVFAWSTQSTNWLEFVRDGYAVVIQDTRGLFASEGEFVPHVDDEADAEDTLSWILEQAWCDGNVGMFGVSYLGVTQWQAAVSGVGGLKAIAPSMASADLYRAPWYGPGGALSVEALLGWSALIGTGLITSRSDARPEDAADFVQLAAILNDVAGAASVTPLAEQPLLGRLIPWVIDQVVDHPDNDESWQSISLFERLGGLATPALITAGWYDGFVGESLRTFVAVKDNADARLVVGPWSHSNLTGRNADRKFGIAATYPIQEATTMHKAFFDRHLRGETDALAGVPKVRLFVMGIDEWRDETDWPLPDTAYTPFYLGGSGAANTSTGGGTLSTSISGTESADTYLYDPADPVPSLGGTLLFHNGDNGPADQRPIHDRDDVLCYSTEVLTDPVEVTGTVSARLFVSSSAVDTDFTAKLVDVFPDGRAIALCDGIVRMRYRETLVNPTLIEAGEIYEVAIDMLATSNVFLPGHRIMVQVSSSNFPKYDRNSNTGGVIAREQLEEMCTAVNRIHRGPEHPSHIVLPIIKR
modifications: monomethoxy-PEG 5.5 kDa, 1-4 chains
initial CocE activity recovered after the pegylation reaction [11]: > 70%

B3: BChE: serum butyrylcholinesterase (protein, UniProt P06276 29-602, looked up)
Cholinesterase: EDDIIIATKNGKVRGMNLTVFGGTVTAFLGIPYAQPPLGRLRFKKPQSLTKWSDIWNATKYANSCCQNIDQSFPGFHGSEMWNPNTDLSEDCLYLNVWIPAPKPKNATVLIWIYGGGFQTGTSSLHVYDGKFLARVERVIVVSMNYRVGALGFLALPGNPEAPGNMGLFDQQLALQWVQKNIAAFGGNPKSVTLFGESAGAASVSLHLLSPGSHSLFTRAILQSGSFNAPWAVTSLYEARNRTLNLAKLTGCSRENETEIIKCLRNKDPQEILLNEAFVVPYGTPLSVNFGPTVDGDFLTDMPDILLELGQFKKTQILVGVNKDEGTAFLVYGAPGFSKDNNSIITRKEFQEGLKIFFPGVSEFGKESILFHYTDWVDDQRPENYREALGDVVGDYNFICPALEFTKKFSEWGNNAFFYYFEHRSSKLPWPEWMGVMHGYEIEFVFGLPLERRDNYTKAEEILSRSIVKRWANFAKYGNPNETQNNSTSWPVFKSTEQKYLTLNTESTRIMTKLRAQQCRFWTSFFPKVLEMTGNIDEAEWEWKAGFHRWNNYMMDWKNQFNDYTSKKESCVGL
change in the dose of cocaine necessary to kill the mice ([4]; 1 mg): slight increase
time to death ([4]; 1 mg): not modified
Kcat [12]: 0.0683 s⁻¹
Km [12]: 4.5 µM
treatment required for protection against an LD50 dose of cocaine [13]: 10 mg/kg
protection against cocaine-induced lethality ([8]; 13 mg (10-times molar equivalent dose), one minute before 180 mg/kg cocaine): no protection
